# Test results reported in PMC6325607.
# B1: Glyceraldehyde-3-phosphate dehydrogenase GapA (CbGAPDH) (Citrobacter sp. S-77) (protein)
# chain: TIKVGINGFGRIGRIVFRAAQERSDIEIVAINDLLDADYMAYMLKYDSTHGRFNGSVEVKDGHLIVNGKKIRVTAERDPANLKWDEVGVDVVAEATGLFLTDETARKHITAGAKKVVLTGPSKDNTPMFVKGANFDKYEGQDIVSNASCTTNCLAPLAKVINDNFGIIEGLMTTVHATTATQKTVDGPSHKDWRGGRGAAQNIIPSSTGAAKAVGKVLPELNGKLTGMAFRVPTPNVSVVDLTVRLEKAASYEEIKKAIKAASEGPMKGVLGYTEDDVVSTDFNGEVCTSVFDAKAGIALNDNFVKLVSWYDNETGYSNKVLDLIAHISK
# B2: Glyceraldehyde-3-phosphate dehydrogenase (GAPDH) (Geobacillus stearothermophilus (Bacillus stearothermophilus)) (protein)
# chain: AVKVGINGFGRIGRNVFRAALKNPDIEVVAVNDLTDANTLAHLLKYDSVHGRLDAEVSVNGNNLVVNGKEIIVKAERDPENLAWGEIGVDIVVESTGRFTKREDAAKHLEAGAKKVIISAPAKNEDITIVMGVNQDKYDPKAHHVISNASCTTNCLAPFAKVLHEQFGIVRGMMTTVHSYTNDQRILDLPHKDLRRARAAAESIIPTTTGAAKAVALVLPELKGKLNGMAMRVPTPNVSVVDLVAELEKEVTVEEVNAALKAAAEGELKGILAYSEEPLVSRDYNGSTVSSTIDALSTMVIDGKMVKVVSWYDNETGYSHRVVDLAAYIASKGL
# B3: Glyceraldehyde-3-phosphate dehydrogenase A (GAPDH) (Escherichia coli) (protein)
# chain: TIKVGINGFGRIGRIVFRAAQKRSDIEIVAINDLLDADYMAYMLKYDSTHGRFDGTVEVKDGHLIVNGKKIRVTAERDPANLKWDEVGVDVVAEATGLFLTDETARKHITAGAKKVVMTGPSKDNTPMFVKGANFDKYAGQDIVSNASCTTNCLAPLAKVINDNFGIIEGLMTTVHATTATQKTVDGPSHKDWRGGRGASQNIIPSSTGAAKAVGKVLPELNGKLTGMAFRVPTPNVSVVDLTVRLEKAATYEQIKAAVKAAAEGEMKGVLGYTEDDVVSTDFNGEVCTSVFDAKAGIALNDNFVKLVSWYDNETGYSNKVLDLIAHISK
# What was measured:
# [1] = molecular target: Cys149 (position 149, …); assay: chemical modification; settings: 25 °C; not stated (10 mM buffers); 10 mM sodium acetate (pH 4-5), 10 mM MES (pH 5.5-6.5), 10 mM Tris/HCl (pH 7-9); Native reduced enzyme at 2.8 uM, with no substrate or NAD+ added. Cofactor occupancy is not stated.
# [2] = molecular target: Cys149; settings: cited from earlier work
# [3] = molecular target: Cys149 (UniProt position 150, …); settings: cited from earlier work
protein,measurement,setting,value
B1,pKa,[1],5.82 ± 0.05
B2,pKa,[2],5.92
B3,pKa,[3],5.70
